Measurements as given in patent publication US20210388087A1 (Chugai, published 2021).
Changes are numbered by the printed parent chain. In names and notes the source's numbering stands.

B1: dBBDu183H A102Y/dBBDu072L (antibody, name in Kabat numbering, V domains shown)
VH: QVQLVESGGGLVQPGRSLRLSCAASGFTFSNAWMHWVRQAPGKGLEWVAQIKDKGNAYAAYYAPSVKGRFTISRDDSKNSIYLQMNSLKTEDTAVYYCHYVHYASASTVLPAFGVDYWGQGTTVTVSS
VL: DIVMTQSPLSLPVTPGEPASISCQASQELVHMNRNTYLHWYQQKPGQAPRLLIYKVSNRFPGVPDRFSGSGSGTDFTLKISRVEAEDVGVYYCAQGTSVPFTFGQGTKLEIK
B2: dBBDu183H F100gE/dBBDu072L (antibody, name in Kabat numbering, V domains shown)
VH: B1 VH with F113E, Y117A
VL: B1 VL
B3: dBBDu183H G65Y/dBBDu072L (antibody, name in Kabat numbering, V domains shown)
VH: B1 VH with G68Y, Y117A
VL: B1 VL
B4: dBBDu183H G65T/dBBDu072L (antibody, name in Kabat numbering, V domains shown)
VH: B1 VH with G68T, Y117A
VL: B1 VL
B5: dBBDu183H G65Q/dBBDu072L (antibody, name in Kabat numbering, V domains shown)
VH: B1 VH with G68Q, Y117A
VL: B1 VL
B6: dBBDu183H D101E/dBBDu072L (antibody, name in Kabat numbering, V domains shown)
VH: B1 VH with D116E, Y117A
VL: B1 VL
B7: dBBDu183H F100gW/dBBDu072L (antibody, name in Kabat numbering, V domains shown)
VH: B1 VH with F113W, Y117A
VL: B1 VL
B8: dBBDu183H G100hF/dBBDu072L (antibody, name in Kabat numbering, V domains shown)
VH: B1 VH with G114F, Y117A
VL: B1 VL
B9: dBBDu183H F100gY/dBBDu072L (antibody, name in Kabat numbering, V domains shown)
VH: B1 VH with F113Y, Y117A
VL: B1 VL
B10: dBBDu183H D101R/dBBDu072L (antibody, name in Kabat numbering, V domains shown)
VH: B1 VH with D116R, Y117A
VL: B1 VL
B11: dBBDu183H D101K/dBBDu072L (antibody, name in Kabat numbering, V domains shown)
VH: B1 VH with D116K, Y117A
VL: B1 VL
B12: dBBDu183H F100gS/dBBDu072L (antibody, name in Kabat numbering, V domains shown)
VH: B1 VH with F113S, Y117A
VL: B1 VL
B13: dBBDu183H F100gH/dBBDu072L (antibody, name in Kabat numbering, V domains shown)
VH: B1 VH with F113H, Y117A
VL: B1 VL
B14: dBBDu183H D101T/dBBDu072L (antibody, name in Kabat numbering, V domains shown)
VH: B1 VH with D116T, Y117A
VL: B1 VL
B15: dBBDu183H D101S/dBBDu072L (antibody, name in Kabat numbering, V domains shown)
VH: B1 VH with D116S, Y117A
VL: B1 VL
B16: dBBDu183H G65W/dBBDu072L (antibody, name in Kabat numbering, V domains shown)
VH: B1 VH with G68W, Y117A
VL: B1 VL
B17: dBBDu183H F100gR/dBBDu072L (antibody, name in Kabat numbering, V domains shown)
VH: B1 VH with F113R, Y117A
VL: B1 VL
B18: dBBDu183H F100gN/dBBDu072L (antibody, name in Kabat numbering, V domains shown)
VH: B1 VH with F113N, Y117A
VL: B1 VL
B19: dBBDu183H F100gQ/dBBDu072L (antibody, name in Kabat numbering, V domains shown)
VH: B1 VH with F113Q, Y117A
VL: B1 VL
B20: dBBDu183H G65F/dBBDu072L (antibody, name in Kabat numbering, V domains shown)
VH: B1 VH with G68F, Y117A
VL: B1 VL
B21: dBBDu183H D101W/dBBDu072L (antibody, name in Kabat numbering, V domains shown)
VH: B1 VH with D116W, Y117A
VL: B1 VL
B22: dBBDu183H G65V/dBBDu072L (antibody, name in Kabat numbering, V domains shown)
VH: B1 VH with G68V, Y117A
VL: B1 VL
B23: dBBDu183H D101V/dBBDu072L (antibody, name in Kabat numbering, V domains shown)
VH: B1 VH with D116V, Y117A
VL: B1 VL
B24: dBBDu183H G100hK/dBBDu072L (antibody, name in Kabat numbering, V domains shown)
VH: B1 VH with G114K, Y117A
VL: B1 VL
B25: dBBDu183H D101F/dBBDu072L (antibody, name in Kabat numbering, V domains shown)
VH: B1 VH with D116F, Y117A
VL: B1 VL
B26: dBBDu183H G100hD/dBBDu072L (antibody, name in Kabat numbering, V domains shown)
VH: B1 VH with G114D, Y117A
VL: B1 VL
B27: dBBDu183H F100gK/dBBDu072L (antibody, name in Kabat numbering, V domains shown)
VH: B1 VH with F113K, Y117A
VL: B1 VL
B28: dBBDu183H F100gG/dBBDu072L (antibody, name in Kabat numbering, V domains shown)
VH: B1 VH with F113G, Y117A
VL: B1 VL
B29: dBBDu183H D101N/dBBDu072L (antibody, name in Kabat numbering, V domains shown)
VH: B1 VH with D116N, Y117A
VL: B1 VL
B30: dBBDu183H G65H/dBBDu072L (antibody, name in Kabat numbering, V domains shown)
VH: B1 VH with G68H, Y117A
VL: B1 VL
B31: dBBDu183H G65S/dBBDu072L (antibody, name in Kabat numbering, V domains shown)
VH: B1 VH with G68S, Y117A
VL: B1 VL
B32: dBBDu183H F100gV/dBBDu072L (antibody, name in Kabat numbering, V domains shown)
VH: B1 VH with F113V, Y117A
VL: B1 VL
B33: dBBDu183H G65K/dBBDu072L (antibody, name in Kabat numbering, V domains shown)
VH: B1 VH with G68K, Y117A
VL: B1 VL
B34: dBBDu183H G65E/dBBDu072L (antibody, name in Kabat numbering, V domains shown)
VH: B1 VH with G68E, Y117A
VL: B1 VL
B35: dBBDu183H G100hE/dBBDu072L (antibody, name in Kabat numbering, V domains shown)
VH: B1 VH with G114E, Y117A
VL: B1 VL
B36: dBBDu183H D101H/dBBDu072L (antibody, name in Kabat numbering, V domains shown)
VH: B1 VH with D116H, Y117A
VL: B1 VL
B37: dBBDu183H G65N/dBBDu072L (antibody, name in Kabat numbering, V domains shown)
VH: B1 VH with G68N, Y117A
VL: B1 VL
B38: dBBDu183H D101Q/dBBDu072L (antibody, name in Kabat numbering, V domains shown)
VH: B1 VH with D116Q, Y117A
VL: B1 VL
B39: dBBDu183H F100gD/dBBDu072L (antibody, name in Kabat numbering, V domains shown)
VH: B1 VH with F113D, Y117A
VL: B1 VL
B40: dBBDu183H G65R/dBBDu072L (antibody, name in Kabat numbering, V domains shown)
VH: B1 VH with G68R, Y117A
VL: B1 VL
B41: dBBDu183H G100hH/dBBDu072L (antibody, name in Kabat numbering, V domains shown)
VH: B1 VH with G114H, Y117A
VL: B1 VL
B42: dBBDu183H D101G/dBBDu072L (antibody, name in Kabat numbering, V domains shown)
VH: B1 VH with D116G, Y117A
VL: B1 VL
B43: dBBDu183H G65D/dBBDu072L (antibody, name in Kabat numbering, V domains shown)
VH: B1 VH with G68D, Y117A
VL: B1 VL
B44: dBBDu183H D101Y/dBBDu072L (antibody, name in Kabat numbering, V domains shown)
VH: B1 VH with D116Y, Y117A
VL: B1 VL
B45: dBBDu183H F100gT/dBBDu072L (antibody, name in Kabat numbering, V domains shown)
VH: B1 VH with F113T, Y117A
VL: B1 VL

Biological target: T1, Human CD3eg linker (human)
T1 construct: single-chain construct; also called recombinant human CD3
T1 chain: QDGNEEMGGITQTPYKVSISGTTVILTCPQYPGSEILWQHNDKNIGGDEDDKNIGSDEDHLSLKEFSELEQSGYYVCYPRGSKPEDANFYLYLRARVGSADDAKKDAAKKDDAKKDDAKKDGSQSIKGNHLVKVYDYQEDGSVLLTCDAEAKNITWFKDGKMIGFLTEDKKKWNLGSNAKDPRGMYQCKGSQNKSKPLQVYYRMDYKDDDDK
Experiment: SPR, vs unmutated H183/L072

Row | Binder | fold change of affinity [fold]
1 | B1 | 2.5
2 | B2 | 0.5
3 | B3 | 1
4 | B4 | 1
5 | B5 | 1
6 | B6 | 0
7 | B7 | 0.9
8 | B8 | 0.4
9 | B9 | 1.2
10 | B10 | 0
11 | B11 | 0
12 | B12 | 1.4
13 | B13 | 1.8
14 | B14 | 0.2
15 | B15 | 0.6
16 | B16 | 1
17 | B17 | 3.4
18 | B18 | 0.9
19 | B19 | 1.3
20 | B20 | 0.9
21 | B21 | 0
22 | B22 | 1.2
23 | B23 | 0.5

Row | Binder | fold change of affinity [fold]
24 | B24 | 0.3
25 | B25 | 2.5
26 | B26 | 0.5
27 | B27 | 1.7
28 | B28 | 1.2
29 | B29 | 1.1
30 | B30 | 0.9
31 | B31 | 1
32 | B32 | 1.2
33 | B33 | 1.1
34 | B34 | 1
35 | B35 | 0.5
36 | B36 | 0.4
37 | B37 | 0.9
38 | B38 | 0
39 | B39 | 0.3
40 | B40 | 1
41 | B41 | 1.5
42 | B42 | 0.4
43 | B43 | 1
44 | B44 | 0
45 | B45 | 1.3
